Measured values as given in article PMC2580787 (The EMBO journal, 2008).

T1: Sec24d (lacking residues 1-266) (human, UniProt O94855 267-1032)
T1 sequence (looked up): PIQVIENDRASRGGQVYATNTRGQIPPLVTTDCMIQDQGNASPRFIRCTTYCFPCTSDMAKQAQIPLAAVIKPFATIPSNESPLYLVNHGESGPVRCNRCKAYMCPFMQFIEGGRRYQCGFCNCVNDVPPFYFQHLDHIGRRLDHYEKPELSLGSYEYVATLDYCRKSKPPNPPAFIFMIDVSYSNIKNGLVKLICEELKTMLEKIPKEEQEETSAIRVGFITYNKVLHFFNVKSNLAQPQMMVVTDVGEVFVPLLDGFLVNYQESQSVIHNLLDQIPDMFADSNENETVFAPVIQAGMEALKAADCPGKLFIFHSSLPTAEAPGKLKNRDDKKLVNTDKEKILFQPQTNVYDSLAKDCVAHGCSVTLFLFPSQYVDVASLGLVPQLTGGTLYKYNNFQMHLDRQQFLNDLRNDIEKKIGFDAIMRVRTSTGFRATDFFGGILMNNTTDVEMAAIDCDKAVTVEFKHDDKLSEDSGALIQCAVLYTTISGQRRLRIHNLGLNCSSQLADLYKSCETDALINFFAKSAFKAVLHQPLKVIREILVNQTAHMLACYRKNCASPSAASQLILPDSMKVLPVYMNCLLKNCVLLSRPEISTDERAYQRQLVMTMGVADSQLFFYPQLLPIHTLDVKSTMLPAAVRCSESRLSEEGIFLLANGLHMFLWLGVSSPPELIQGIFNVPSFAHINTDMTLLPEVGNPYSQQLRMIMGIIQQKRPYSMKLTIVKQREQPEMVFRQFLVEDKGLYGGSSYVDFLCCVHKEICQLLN


Target: T1, Sec24d (lacking residues 1-266)

Row | Binder | binding result
1 | DVAIDMMDP [syntaxin 5 peptide 188DVAIDMMDP196] | binds
2 | TTIPMDE [membrin peptide 116TTIPMDE122] | binds
